The text below walks through data of patent US7326418B2, “Identification of novel factors that block programmed cell death or apoptosis by targeting JNK” (University of Chicago, priority 2001, dated 2008).

The target of this experiment is T1, ASK1 (Homo sapiens, UniProt Q99683).
T1 sequence (Q99683 1-1374): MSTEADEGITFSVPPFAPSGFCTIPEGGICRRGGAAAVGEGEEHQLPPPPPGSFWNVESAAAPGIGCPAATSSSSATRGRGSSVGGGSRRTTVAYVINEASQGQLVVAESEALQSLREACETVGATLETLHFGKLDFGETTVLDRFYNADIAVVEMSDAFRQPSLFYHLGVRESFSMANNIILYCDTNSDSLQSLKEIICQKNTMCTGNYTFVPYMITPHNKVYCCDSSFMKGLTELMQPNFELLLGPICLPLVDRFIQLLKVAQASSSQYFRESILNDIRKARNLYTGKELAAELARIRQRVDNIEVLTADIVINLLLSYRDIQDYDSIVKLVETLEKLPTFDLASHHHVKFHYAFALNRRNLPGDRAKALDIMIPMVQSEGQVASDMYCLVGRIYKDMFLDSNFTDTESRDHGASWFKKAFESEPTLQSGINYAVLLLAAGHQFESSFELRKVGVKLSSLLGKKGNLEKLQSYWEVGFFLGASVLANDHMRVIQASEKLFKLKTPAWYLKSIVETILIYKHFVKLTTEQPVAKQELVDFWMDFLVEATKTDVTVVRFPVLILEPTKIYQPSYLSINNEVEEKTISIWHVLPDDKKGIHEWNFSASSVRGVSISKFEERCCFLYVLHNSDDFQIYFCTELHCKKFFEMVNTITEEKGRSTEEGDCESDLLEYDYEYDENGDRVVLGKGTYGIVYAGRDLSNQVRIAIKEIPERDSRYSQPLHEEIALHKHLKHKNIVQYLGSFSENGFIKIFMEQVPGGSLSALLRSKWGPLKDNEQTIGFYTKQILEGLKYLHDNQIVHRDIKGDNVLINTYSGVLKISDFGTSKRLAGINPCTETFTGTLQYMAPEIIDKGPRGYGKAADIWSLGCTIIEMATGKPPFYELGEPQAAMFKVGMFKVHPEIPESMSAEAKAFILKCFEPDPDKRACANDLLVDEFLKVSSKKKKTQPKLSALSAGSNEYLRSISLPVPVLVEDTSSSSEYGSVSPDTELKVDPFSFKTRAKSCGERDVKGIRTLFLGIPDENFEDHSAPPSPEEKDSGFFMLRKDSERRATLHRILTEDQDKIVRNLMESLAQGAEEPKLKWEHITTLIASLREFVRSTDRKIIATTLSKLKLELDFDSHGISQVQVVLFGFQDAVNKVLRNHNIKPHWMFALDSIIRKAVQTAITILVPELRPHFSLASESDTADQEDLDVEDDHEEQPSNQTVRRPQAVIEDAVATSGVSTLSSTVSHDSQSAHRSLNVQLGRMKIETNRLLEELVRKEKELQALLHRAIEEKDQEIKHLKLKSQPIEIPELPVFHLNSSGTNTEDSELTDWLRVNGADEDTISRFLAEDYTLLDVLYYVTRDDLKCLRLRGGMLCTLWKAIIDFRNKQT
The experiment can be described thus: GST pull-down, GST-Gadd45β beads with in vitro translated 35S-labeled ASK1. Format: binding. More on the design: plasmids encoding full-length (FL) human ASK1, MEKK4, JNKK1, and JNKK2; made in house; host or cells: TNT coupled reticulocyte lysate (Promega), in vitro transcription/translation from pBS. How it is done: To confirm the above interactions, in vitro, GST pull-down experiments were performed. pBluescript (pBS) plasmids encoding full-length (FL) human ASK1, MEKK4, JNKK1, and JNKK2, or polypeptides derived from the amino- or carboxy-terminal portions of ASK1 (i.e. N-ASK1, spanning from amino acids 1 to 756, and C-ASK1, spanning from amino acids 648 to 1375) were transcribed and translated in vitro using the TNT coupled retyculocyte lysate system (Promega) in the presence of ^35S-methionine. 5 μl of each translation mix were incubated, in vitro, with sepharose-4B beads that had been coated with either purified glutathione-S-transferase (GST) polypeptides or GST-Gadd45β proteins. The latter proteins contained FL murine Gadd45β directly fused to GST. Binding assays were performed according to standard procedures, and ^35S-labeled proteins that bound to beads, as well as 2 μl of each in vitro translation mix (input), were then resolved by SDS polyacrylamide gel electrophoresis. Asterisks indicate the intact translated products. […] Thus, GST pull-down experiments confirmed the strong interaction between Gadd45β and JNKK2 observed in vivo, as well as the weaker interactions of Gadd45β with other kinases in the JNK pathway. These assays also uncovered a weak association between Gadd45β and JNKK1. […]

B1: GST-Gadd45β: full-length murine Gadd45β directly fused to GST, purified from E. coli (protein)
chain: MTLEELVASDNAVQKMQAVTAAVEQLLVAAQRQDRLTVGVYEAAKLMNVDPDSVVLCLLAIDEEEEDDIALQIHFTLIQSFCCDNDIDIVRVSGMQRLAQLLGEPAETLGTTEARDLHCLLVTNCHTDSWKSQGLVEVASYCEESRGNNQWVPYISLEER
modifications: left off: a dimerising Fc or GST
notes: full-length murine Gadd45β directly fused to GST, purified from E. coli
For the molecule B1, the “association with ASK1” value is listed as “less avidly than with JNKK2”.
